According to article PMC2928259 (Biochemistry, 2010):

Molecular target: T1, Cbf5 (Pyrococcus furiosus, UniProt Q7LWY0 1-340)
T1 sequence (looked up): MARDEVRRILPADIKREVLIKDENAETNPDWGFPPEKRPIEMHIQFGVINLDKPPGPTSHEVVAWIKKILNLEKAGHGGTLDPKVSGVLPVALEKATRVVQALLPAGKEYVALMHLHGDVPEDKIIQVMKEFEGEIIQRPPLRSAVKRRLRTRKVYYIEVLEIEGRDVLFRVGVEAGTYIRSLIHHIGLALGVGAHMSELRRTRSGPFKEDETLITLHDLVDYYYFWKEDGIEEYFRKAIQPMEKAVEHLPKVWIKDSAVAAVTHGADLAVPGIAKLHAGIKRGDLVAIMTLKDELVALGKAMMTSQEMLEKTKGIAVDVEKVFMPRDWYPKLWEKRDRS
Test: crystal structure

B1: Nop10 (natural protein, Pyrococcus furiosus)
chain: MRFRIRKCPKCGRYTLKEVCPVCGEKTKVAHPPRFSPEDPYGEYRRRWKREVLGIGRKEK
binding result: binds
